Experiments:
Test in all cases: FcγR ELISA, 20 µg/mL antibody
[1] = biological target: T1, dimeric, His-tagged, C-terminally biotinylated ECD of FcγRIIB (Homo sapiens (Human), UniProt P31994 44-223, C-terminally biotinylated)
T1 construct: also called diFCGR2B-HisBAP
T1 sequence: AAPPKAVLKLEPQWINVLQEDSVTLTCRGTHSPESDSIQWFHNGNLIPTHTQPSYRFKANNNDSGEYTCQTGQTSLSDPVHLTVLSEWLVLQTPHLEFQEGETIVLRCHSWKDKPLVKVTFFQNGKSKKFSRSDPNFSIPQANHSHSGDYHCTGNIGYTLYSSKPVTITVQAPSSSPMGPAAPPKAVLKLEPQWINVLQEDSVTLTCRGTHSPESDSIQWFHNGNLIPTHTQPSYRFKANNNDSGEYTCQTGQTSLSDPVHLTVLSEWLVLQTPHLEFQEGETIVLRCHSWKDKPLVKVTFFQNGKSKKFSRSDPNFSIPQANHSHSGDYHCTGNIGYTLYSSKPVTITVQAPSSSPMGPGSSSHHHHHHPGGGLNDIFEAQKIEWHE

[2] = biological target: T2, dimeric, His-tagged, C-terminally biotinylated ECD of FcγRIIA allotype 131H (Homo sapiens (Human), UniProt P12318 34-215, C-terminally biotinylated)
T2 sequence: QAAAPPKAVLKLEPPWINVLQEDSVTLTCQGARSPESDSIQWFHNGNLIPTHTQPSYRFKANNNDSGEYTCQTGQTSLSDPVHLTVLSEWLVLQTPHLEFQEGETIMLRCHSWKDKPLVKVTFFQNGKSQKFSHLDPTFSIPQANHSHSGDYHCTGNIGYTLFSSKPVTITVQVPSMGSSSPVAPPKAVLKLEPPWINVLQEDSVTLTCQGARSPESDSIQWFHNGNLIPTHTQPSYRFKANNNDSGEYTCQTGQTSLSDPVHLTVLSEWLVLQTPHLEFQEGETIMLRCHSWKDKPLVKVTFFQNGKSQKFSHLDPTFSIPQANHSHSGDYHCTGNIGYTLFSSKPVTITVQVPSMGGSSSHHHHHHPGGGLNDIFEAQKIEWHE

[3] = biological target: T3, dimeric, His-tagged, C-terminally biotinylated ECD of FcγRIIA allotype 131R (Homo sapiens (Human), UniProt P12318 36-215, C-terminally biotinylated)
T3 chain: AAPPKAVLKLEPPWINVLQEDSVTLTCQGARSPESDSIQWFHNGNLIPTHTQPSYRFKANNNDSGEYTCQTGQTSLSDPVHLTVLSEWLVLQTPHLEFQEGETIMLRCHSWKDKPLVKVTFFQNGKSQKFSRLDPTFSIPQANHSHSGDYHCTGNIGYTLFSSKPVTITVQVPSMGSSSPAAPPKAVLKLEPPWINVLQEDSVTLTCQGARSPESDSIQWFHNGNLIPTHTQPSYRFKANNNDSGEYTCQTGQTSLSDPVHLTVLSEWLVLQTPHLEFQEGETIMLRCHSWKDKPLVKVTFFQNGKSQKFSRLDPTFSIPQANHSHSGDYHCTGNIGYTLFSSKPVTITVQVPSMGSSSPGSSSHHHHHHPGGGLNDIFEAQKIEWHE

Measured: binding result

B1: IgG1-CAMPATH-1H-E430G-K439E-Q438N (antibody)
heavy: QVQLQESGPGLVRPSQTLSLTCTVSGFTFTDFYMNWVRQPPGRGLEWIGFIRDKAKGYTTEYNPSVKGRVTMLVDTSKNQFSLRLSSVTAADTAVYYCAREGHTAAPFDYWGQGSLVTVSSASTKGPSVFPLAPSSKSTSGGTAALGCLVKDYFPEPVTVSWNSGALTSGVHTFPAVLQSSGLYSLSSVVTVPSSSLGTQTYICNVNHKPSNTKVDKRVEPKSCDKTHTCPPCPAPELLGGPSVFLFPPKPKDTLMISRTPEVTCVVVDVSHEDPEVKFNWYVDGVEVHNAKTKPREEQYNSTYRVVSVLTVLHQDWLNGKEYKCKVSNKALPAPIEKTISKAKGQPREPQVYTLPPSREEMTKNQVSLTCLVKGFYPSDIAVEWESNGQPENNYKTTPPVLDSDGSFFLYSKLTVDKSRWQQGNVFSCSVMHGALHNHYTNESLSLSPGK
light: not shown
notes: also called IgG1-Campath-E430G Q438N/K439E
binds: all assays above

B2: IgG1-CAMPATH-1H-E430G-S440K-Y436N (antibody)
heavy: QVQLQESGPGLVRPSQTLSLTCTVSGFTFTDFYMNWVRQPPGRGLEWIGFIRDKAKGYTTEYNPSVKGRVTMLVDTSKNQFSLRLSSVTAADTAVYYCAREGHTAAPFDYWGQGSLVTVSSASTKGPSVFPLAPSSKSTSGGTAALGCLVKDYFPEPVTVSWNSGALTSGVHTFPAVLQSSGLYSLSSVVTVPSSSLGTQTYICNVNHKPSNTKVDKRVEPKSCDKTHTCPPCPAPELLGGPSVFLFPPKPKDTLMISRTPEVTCVVVDVSHEDPEVKFNWYVDGVEVHNAKTKPREEQYNSTYRVVSVLTVLHQDWLNGKEYKCKVSNKALPAPIEKTISKAKGQPREPQVYTLPPSREEMTKNQVSLTCLVKGFYPSDIAVEWESNGQPENNYKTTPPVLDSDGSFFLYSKLTVDKSRWQQGNVFSCSVMHGALHNHNTQKKLSLSPGK
light: not shown
binds: all assays above

B3: IgG1-CAMPATH-1H-E430G-S440K-Q438R (antibody)
heavy: QVQLQESGPGLVRPSQTLSLTCTVSGFTFTDFYMNWVRQPPGRGLEWIGFIRDKAKGYTTEYNPSVKGRVTMLVDTSKNQFSLRLSSVTAADTAVYYCAREGHTAAPFDYWGQGSLVTVSSASTKGPSVFPLAPSSKSTSGGTAALGCLVKDYFPEPVTVSWNSGALTSGVHTFPAVLQSSGLYSLSSVVTVPSSSLGTQTYICNVNHKPSNTKVDKRVEPKSCDKTHTCPPCPAPELLGGPSVFLFPPKPKDTLMISRTPEVTCVVVDVSHEDPEVKFNWYVDGVEVHNAKTKPREEQYNSTYRVVSVLTVLHQDWLNGKEYKCKVSNKALPAPIEKTISKAKGQPREPQVYTLPPSREEMTKNQVSLTCLVKGFYPSDIAVEWESNGQPENNYKTTPPVLDSDGSFFLYSKLTVDKSRWQQGNVFSCSVMHGALHNHYTRKKLSLSPGK
light: not shown
notes: also called IgG1-Campath-E430G Q438R/S440K
binds: all assays above

B4: IgG1-CAMPATH-1H-E430G-S440K-Q438N (antibody)
heavy: QVQLQESGPGLVRPSQTLSLTCTVSGFTFTDFYMNWVRQPPGRGLEWIGFIRDKAKGYTTEYNPSVKGRVTMLVDTSKNQFSLRLSSVTAADTAVYYCAREGHTAAPFDYWGQGSLVTVSSASTKGPSVFPLAPSSKSTSGGTAALGCLVKDYFPEPVTVSWNSGALTSGVHTFPAVLQSSGLYSLSSVVTVPSSSLGTQTYICNVNHKPSNTKVDKRVEPKSCDKTHTCPPCPAPELLGGPSVFLFPPKPKDTLMISRTPEVTCVVVDVSHEDPEVKFNWYVDGVEVHNAKTKPREEQYNSTYRVVSVLTVLHQDWLNGKEYKCKVSNKALPAPIEKTISKAKGQPREPQVYTLPPSREEMTKNQVSLTCLVKGFYPSDIAVEWESNGQPENNYKTTPPVLDSDGSFFLYSKLTVDKSRWQQGNVFSCSVMHGALHNHYTNKKLSLSPGK
light: not shown
binds: all assays above

B5: IgG1-CAMPATH-1H-E430G-S440K-Y436K (antibody)
heavy: QVQLQESGPGLVRPSQTLSLTCTVSGFTFTDFYMNWVRQPPGRGLEWIGFIRDKAKGYTTEYNPSVKGRVTMLVDTSKNQFSLRLSSVTAADTAVYYCAREGHTAAPFDYWGQGSLVTVSSASTKGPSVFPLAPSSKSTSGGTAALGCLVKDYFPEPVTVSWNSGALTSGVHTFPAVLQSSGLYSLSSVVTVPSSSLGTQTYICNVNHKPSNTKVDKRVEPKSCDKTHTCPPCPAPELLGGPSVFLFPPKPKDTLMISRTPEVTCVVVDVSHEDPEVKFNWYVDGVEVHNAKTKPREEQYNSTYRVVSVLTVLHQDWLNGKEYKCKVSNKALPAPIEKTISKAKGQPREPQVYTLPPSREEMTKNQVSLTCLVKGFYPSDIAVEWESNGQPENNYKTTPPVLDSDGSFFLYSKLTVDKSRWQQGNVFSCSVMHGALHNHKTQKKLSLSPGK
light: not shown
notes: also called IgG1-Campath-E430G Y436K/S440K
binds: all assays above

B6: IgG1-CAMPATH-1H-E430G-K439E-Y436N (antibody)
heavy: QVQLQESGPGLVRPSQTLSLTCTVSGFTFTDFYMNWVRQPPGRGLEWIGFIRDKAKGYTTEYNPSVKGRVTMLVDTSKNQFSLRLSSVTAADTAVYYCAREGHTAAPFDYWGQGSLVTVSSASTKGPSVFPLAPSSKSTSGGTAALGCLVKDYFPEPVTVSWNSGALTSGVHTFPAVLQSSGLYSLSSVVTVPSSSLGTQTYICNVNHKPSNTKVDKRVEPKSCDKTHTCPPCPAPELLGGPSVFLFPPKPKDTLMISRTPEVTCVVVDVSHEDPEVKFNWYVDGVEVHNAKTKPREEQYNSTYRVVSVLTVLHQDWLNGKEYKCKVSNKALPAPIEKTISKAKGQPREPQVYTLPPSREEMTKNQVSLTCLVKGFYPSDIAVEWESNGQPENNYKTTPPVLDSDGSFFLYSKLTVDKSRWQQGNVFSCSVMHGALHNHNTQESLSLSPGK
light: not shown
notes: also called IgG1-Campath-E430G Y436N/K439E
binds: all assays above

B7: IgG1-CAMPATH-1H-E430G-K439E-Q438R (antibody)
heavy: QVQLQESGPGLVRPSQTLSLTCTVSGFTFTDFYMNWVRQPPGRGLEWIGFIRDKAKGYTTEYNPSVKGRVTMLVDTSKNQFSLRLSSVTAADTAVYYCAREGHTAAPFDYWGQGSLVTVSSASTKGPSVFPLAPSSKSTSGGTAALGCLVKDYFPEPVTVSWNSGALTSGVHTFPAVLQSSGLYSLSSVVTVPSSSLGTQTYICNVNHKPSNTKVDKRVEPKSCDKTHTCPPCPAPELLGGPSVFLFPPKPKDTLMISRTPEVTCVVVDVSHEDPEVKFNWYVDGVEVHNAKTKPREEQYNSTYRVVSVLTVLHQDWLNGKEYKCKVSNKALPAPIEKTISKAKGQPREPQVYTLPPSREEMTKNQVSLTCLVKGFYPSDIAVEWESNGQPENNYKTTPPVLDSDGSFFLYSKLTVDKSRWQQGNVFSCSVMHGALHNHYTRESLSLSPGK
light: not shown
binds: all assays above

B8: IgG1-CAMPATH-1H-E430G-K439E-Y436K (antibody)
heavy: QVQLQESGPGLVRPSQTLSLTCTVSGFTFTDFYMNWVRQPPGRGLEWIGFIRDKAKGYTTEYNPSVKGRVTMLVDTSKNQFSLRLSSVTAADTAVYYCAREGHTAAPFDYWGQGSLVTVSSASTKGPSVFPLAPSSKSTSGGTAALGCLVKDYFPEPVTVSWNSGALTSGVHTFPAVLQSSGLYSLSSVVTVPSSSLGTQTYICNVNHKPSNTKVDKRVEPKSCDKTHTCPPCPAPELLGGPSVFLFPPKPKDTLMISRTPEVTCVVVDVSHEDPEVKFNWYVDGVEVHNAKTKPREEQYNSTYRVVSVLTVLHQDWLNGKEYKCKVSNKALPAPIEKTISKAKGQPREPQVYTLPPSREEMTKNQVSLTCLVKGFYPSDIAVEWESNGQPENNYKTTPPVLDSDGSFFLYSKLTVDKSRWQQGNVFSCSVMHGALHNHKTQESLSLSPGK
light: not shown
binds: all assays above
